For assay [1], the target named is T1, DDX53 peptide LKSGEKRLIPKPTCR (human).
T1 peptide: LKSGEKRLIPKPTCR
The assay is described as follows: peptide microarray epitope mapping (binding stretch).

Assay [2] deals with T2, DDX53 peptide SGEKRLIPKPTCRFK (human).
T2 peptide: SGEKRLIPKPTCRFK
Described as above.

Assay [3] concerns the target T3, DDX53 peptide HVYNYDFPRNIDVYV (human).
T3 peptide: HVYNYDFPRNIDVYV
The description is as above.

Assay [4] concerns the target T4, DDX53 peptide SRGLDLNDVTHVYNY (human).
T4 peptide: SRGLDLNDVTHVYNY
The assay is described as above.

Assay [5] addresses T5, DDX53 peptide RIFGNREMKAKAKAA (human).
T5 peptide: RIFGNREMKAKAKAA
The description is as above.

The target of assay [6] is T6, DDX53 peptide KVRIFGNREMKAKAK (human).
T6 peptide: KVRIFGNREMKAKAK
Described as above.

The target of assay [7] is T7, DDX53 peptide GLDLNDVTHVYNYDF (human).
T7 peptide: GLDLNDVTHVYNYDF
The description is as above.

Assay [8] addresses T8, DDX53 peptide EAKVRIFGNREMKAK (human).
T8 peptide: EAKVRIFGNREMKAK
The assay is described as above.

A further assay addresses T9, DEAD-box helicase 53 (human, UniProt Q86TM3 1-631).
T9 construct: Also the protein of the custom ELISA; also called DDX53; CAGE
The assay is described as follows: custom ELISA.

The target in assay [9] is T10, AKR1A1 peptide ADLQLEYLDLYLMHW (human).
T10 peptide: ADLQLEYLDLYLMHW
Put plainly: peptide microarray epitope mapping (binding stretch).

The target of assay [10] is T11, AKR1A1 peptide VPMLTVDGKRVPRDA (human).
T11 peptide: VPMLTVDGKRVPRDA
Described as above.

Assay [11] concerns the target T12, AKR1A1 peptide TVDGKRVPRDAGHPL (human).
T12 peptide: TVDGKRVPRDAGHPL
The assay is described as above.

For assay [12], the target named is T13, AKR1A1 peptide MLTVDGKRVPRDAGH (human).
T13 peptide: MLTVDGKRVPRDAGH
The assay is described as above.

Assay [13] concerns the target T14, AKR1A1 peptide LQLEYLDLYLMHWPY (human).
T14 peptide: LQLEYLDLYLMHWPY
Described as above.

For assay [14], the target named is T15, AKR1A1 peptide LEYLDLYLMHWPYAF (human).
T15 peptide: LEYLDLYLMHWPYAF
The assay is described as above.

Assay [15] concerns the target T16, AKR1A1 peptide TLADLQLEYLDLYLM (human).
T16 peptide: TLADLQLEYLDLYLM
Described as above.

Assay [16] concerns the target T17, AKR1A1 peptide WRYIVPMLTVDGKRV (human).
T17 peptide: WRYIVPMLTVDGKRV
The description is as above.

Assay [17] deals with T18, AKR1A1 peptide RKTLADLQLEYLDLY (human).
T18 peptide: RKTLADLQLEYLDLY
Described as above.

Assay [18] concerns the target T19, AKR1A1 peptide YIVPMLTVDGKRVPR (human).
T19 peptide: YIVPMLTVDGKRVPR
The assay is described as above.

For the next assay, the target named is T20, kinesin family member C3 (human, UniProt Q9BVG8-5 1-687).
T20 construct: Also the protein of the custom ELISA; also called KIFC3
T20 sequence (looked up): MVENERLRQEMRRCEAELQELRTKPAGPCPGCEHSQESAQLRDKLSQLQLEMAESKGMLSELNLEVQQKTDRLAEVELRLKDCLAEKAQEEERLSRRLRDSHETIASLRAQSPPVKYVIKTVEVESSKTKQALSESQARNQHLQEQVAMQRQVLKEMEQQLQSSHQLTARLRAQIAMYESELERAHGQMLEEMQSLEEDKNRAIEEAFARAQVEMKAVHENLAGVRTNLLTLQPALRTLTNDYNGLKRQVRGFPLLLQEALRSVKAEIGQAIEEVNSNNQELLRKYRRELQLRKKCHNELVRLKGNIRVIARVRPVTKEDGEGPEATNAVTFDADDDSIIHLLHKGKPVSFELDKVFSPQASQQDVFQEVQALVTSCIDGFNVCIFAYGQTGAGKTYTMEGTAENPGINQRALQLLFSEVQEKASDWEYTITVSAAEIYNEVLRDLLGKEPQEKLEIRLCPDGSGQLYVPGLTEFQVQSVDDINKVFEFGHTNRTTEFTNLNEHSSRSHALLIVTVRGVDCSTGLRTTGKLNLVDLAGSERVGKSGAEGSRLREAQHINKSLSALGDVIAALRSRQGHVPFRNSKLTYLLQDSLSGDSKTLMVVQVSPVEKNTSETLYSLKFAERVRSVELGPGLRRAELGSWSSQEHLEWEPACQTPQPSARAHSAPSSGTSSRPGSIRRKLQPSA
The assay is described as follows: custom ELISA.

For assay [19], the target named is T21, magnesium dependent phosphatase 1 (human, UniProt Q86V88 1-176).
T21 construct: Also the protein of the custom ELISA; also called MDP1
The assay is described as follows: custom ELISA.

In assay [20] the target is T22, microtubule associated scaffold protein 2 (human, UniProt Q5JR59-3 1-348).
T22 construct: Also the protein of the custom ELISA; also called MTUS2; microtubule associated tumor suppressor candidate 2
T22 sequence (looked up): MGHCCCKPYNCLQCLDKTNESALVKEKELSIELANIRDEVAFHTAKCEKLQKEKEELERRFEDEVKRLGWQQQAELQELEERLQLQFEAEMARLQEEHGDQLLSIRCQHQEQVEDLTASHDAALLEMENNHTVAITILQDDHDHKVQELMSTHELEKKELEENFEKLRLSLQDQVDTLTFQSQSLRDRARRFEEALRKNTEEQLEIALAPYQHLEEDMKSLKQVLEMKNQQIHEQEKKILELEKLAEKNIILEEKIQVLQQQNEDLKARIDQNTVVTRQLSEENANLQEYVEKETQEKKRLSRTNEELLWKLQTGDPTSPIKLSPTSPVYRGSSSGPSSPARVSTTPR
Put plainly: custom ELISA.

In assay [21] the target is T23, aldo-keto reductase family 1 member A1 (human, UniProt P14550 1-325).
T23 construct: Also the protein of the custom ELISA; also called AKR1A1
T23 sequence (looked up): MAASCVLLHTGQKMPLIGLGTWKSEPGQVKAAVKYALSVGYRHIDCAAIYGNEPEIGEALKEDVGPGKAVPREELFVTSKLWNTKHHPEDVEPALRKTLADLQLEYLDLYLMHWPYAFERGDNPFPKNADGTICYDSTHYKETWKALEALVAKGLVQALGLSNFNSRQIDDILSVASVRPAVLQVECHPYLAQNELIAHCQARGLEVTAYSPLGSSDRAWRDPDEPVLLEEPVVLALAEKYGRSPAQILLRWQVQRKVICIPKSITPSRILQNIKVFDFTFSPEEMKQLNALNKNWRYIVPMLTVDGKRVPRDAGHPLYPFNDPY
The assay is described as follows: custom ELISA.

In assay [22] the target is T24, phosphoribosylglycinamide formyltransferase, phosphoribosylglycinamide synthetase, … (human, UniProt P22102-2 1-433).
T24 construct: Also the protein of the custom ELISA; also called GART
T24 sequence (looked up): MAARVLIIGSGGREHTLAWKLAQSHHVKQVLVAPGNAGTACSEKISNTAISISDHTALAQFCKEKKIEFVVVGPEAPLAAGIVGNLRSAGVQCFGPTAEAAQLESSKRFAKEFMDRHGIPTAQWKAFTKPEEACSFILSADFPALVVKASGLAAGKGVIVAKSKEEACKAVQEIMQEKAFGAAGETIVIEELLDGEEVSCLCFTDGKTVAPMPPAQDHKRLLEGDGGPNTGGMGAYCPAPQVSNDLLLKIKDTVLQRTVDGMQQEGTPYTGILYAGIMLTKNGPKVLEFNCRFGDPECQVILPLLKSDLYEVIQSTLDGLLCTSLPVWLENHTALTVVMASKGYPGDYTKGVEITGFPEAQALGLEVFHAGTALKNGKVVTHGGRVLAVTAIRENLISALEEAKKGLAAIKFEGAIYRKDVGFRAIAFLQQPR
The assay is described as follows: custom ELISA.

Assay [23] deals with T25, peptidylprolyl isomerase like 1 (human, UniProt Q9Y3C6 1-166).
T25 construct: Also the protein of the custom ELISA; also called PPIL1
T25 sequence (looked up): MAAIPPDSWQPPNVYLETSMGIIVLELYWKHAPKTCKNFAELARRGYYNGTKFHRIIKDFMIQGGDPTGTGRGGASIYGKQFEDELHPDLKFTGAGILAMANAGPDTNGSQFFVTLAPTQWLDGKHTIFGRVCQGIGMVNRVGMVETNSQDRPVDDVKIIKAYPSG
The assay is described as follows: custom ELISA.

A further assay addresses T26, aminoacylase 3 (human, UniProt Q96HD9 1-319).
T26 construct: Also the protein of the custom ELISA; also called ACY3
T26 sequence (looked up): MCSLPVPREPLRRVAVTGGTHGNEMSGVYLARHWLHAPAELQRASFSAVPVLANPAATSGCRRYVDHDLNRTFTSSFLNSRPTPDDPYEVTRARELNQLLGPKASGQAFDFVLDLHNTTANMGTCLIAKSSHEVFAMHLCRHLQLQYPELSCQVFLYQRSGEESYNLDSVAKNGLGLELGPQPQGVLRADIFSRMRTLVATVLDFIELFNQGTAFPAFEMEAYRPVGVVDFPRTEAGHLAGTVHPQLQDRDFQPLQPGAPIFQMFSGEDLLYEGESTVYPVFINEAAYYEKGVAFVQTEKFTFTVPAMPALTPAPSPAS
The assay is described as follows: custom ELISA.

In assay [24] the target is T27, KIFC3 peptide AELGSWSSQEHLEWE (human).
T27 peptide: AELGSWSSQEHLEWE
The assay is described as follows: peptide microarray epitope mapping (binding stretch).

For assay [25], the target named is T28, KIFC3 peptide ASDWEYTITVSAAEI (human).
T28 peptide: ASDWEYTITVSAAEI
The description is as above.

Assay [26] addresses T29, KIFC3 peptide LGSWSSQEHLEWEPA (human).
T29 peptide: LGSWSSQEHLEWEPA
Described as above.

In assay [27] the target is T30, KIFC3 peptide SWSSQEHLEWEPACQ (human).
T30 peptide: SWSSQEHLEWEPACQ
The description is as above.

The target in assay [28] is T31, KIFC3 peptide EYTITVSAAEIYNEV (human).
T31 peptide: EYTITVSAAEIYNEV
Described as above.

The target of assay [29] is T32, KIFC3 peptide DWEYTITVSAAEIYN (human).
T32 peptide: DWEYTITVSAAEIYN
The description is as above.

T9 sequence (Q86TM3 whole entry): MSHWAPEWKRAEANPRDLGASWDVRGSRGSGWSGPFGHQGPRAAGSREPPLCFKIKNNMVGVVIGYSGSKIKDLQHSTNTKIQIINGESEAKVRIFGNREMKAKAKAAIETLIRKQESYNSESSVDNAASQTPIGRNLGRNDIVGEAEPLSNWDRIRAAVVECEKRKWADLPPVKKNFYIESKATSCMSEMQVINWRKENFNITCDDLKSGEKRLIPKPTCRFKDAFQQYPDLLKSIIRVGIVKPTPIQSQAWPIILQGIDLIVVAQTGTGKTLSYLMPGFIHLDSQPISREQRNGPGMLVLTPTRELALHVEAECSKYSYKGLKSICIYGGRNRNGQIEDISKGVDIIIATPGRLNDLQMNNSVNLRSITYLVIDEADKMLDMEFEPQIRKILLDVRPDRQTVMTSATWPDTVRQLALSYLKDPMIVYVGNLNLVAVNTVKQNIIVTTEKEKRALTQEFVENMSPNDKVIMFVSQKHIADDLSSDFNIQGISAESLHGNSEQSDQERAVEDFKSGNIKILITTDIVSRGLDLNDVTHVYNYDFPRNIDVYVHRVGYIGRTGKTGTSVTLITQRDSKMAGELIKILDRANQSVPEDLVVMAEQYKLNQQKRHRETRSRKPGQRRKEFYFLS
T21 sequence (Q86V88 whole entry): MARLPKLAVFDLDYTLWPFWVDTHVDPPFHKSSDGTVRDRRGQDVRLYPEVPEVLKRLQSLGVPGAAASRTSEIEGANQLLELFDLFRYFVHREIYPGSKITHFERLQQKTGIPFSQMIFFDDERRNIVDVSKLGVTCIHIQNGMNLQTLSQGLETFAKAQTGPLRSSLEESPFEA

B1: recombinant antibody P1-B4 (antibody, V domains shown)
VH: QVQLVESGPEVKKPGASVKVSCKASGYTFTSYGISWVRQAPGQGLEWMGWISVYKSDTNDAQKFQGRVTMTTDTSTSTAYMELRSLRSDDTAVYYCARSRGIVGSTLDDNWGQGTLVTVSS
VL: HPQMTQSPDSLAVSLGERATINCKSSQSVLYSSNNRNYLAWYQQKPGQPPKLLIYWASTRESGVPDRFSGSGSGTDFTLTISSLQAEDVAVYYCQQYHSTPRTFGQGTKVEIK
notes: also called clone P1-B4
Consider B1, for which the binding result in assay [1], in assay [2], in assay [3], in assay [4], in [5] and in [6] was “binds” each time. Also, the binding result (in assay [7]; in assay [8]; with DEAD-box helicase 53) was “binds” in each case.

B2: recombinant antibody P3-F1 (antibody, V domains shown)
VH: QVQLVESGPTLVKPTQTLTVTCTFSGFSLNTRAVGVGWIRQPPGGALEWLALVYWDDDKRYSPSLKNRLTITKDTSRNQVVLTLTNVAPVDTGTYYCSHHRLTDGRLRWGQGTLVTVSS
VL: QVQLVQSPGTLSLSPGERATLSCRASQSITSSYLAWYQQKFGQAPRLLIYRASNRATGIPDRFSGSGSGTDFTLTISSLESEDFAVYYCQQYDTSPWTFGQGTKVEIK
notes: also called clone P3-F1
On to B2, for which the binding result in assay [9], in assay [10], in [11], in [12], in assay [13] and in assay [14] was “binds” each time. Moreover, the binding result was “binds” in assay [15]; “binds” in assay [16]; “binds” in assay [17]; “binds” in assay [18]; “no binding” with kinesin family member C3; “no binding” in assay [19]. Also, the binding result in assay [20] is reported as “no binding”; in [21] it was “binds”; in assay [22] it was “no binding”; in [23] it was “no binding”; with aminoacylase 3 it was “no binding”; with DEAD-box helicase 53, “no binding”.

B3: recombinant antibody P1-F6 (antibody, V domains shown)
VH: QVPLKESGPALVKPTRTLTLTCTFSGFSLSTNGVSVGWIRQPPGKALDWLALIYWNDDKRYSPSLKNRLTITKDTSKNLVVLRMTNMDPVDTATYYCAHRPIASSRDGFDYWGQGTLVTVSS
VL: DIQMTQFPSTLSASVGETVTISCRASQSVSGWLAWYQQKPGKAPKLLMYKASALENGVPSRFSGSGSGTEFTLTISSLQPDDFATYYCQQYNGFPFTFGPGTKVDIN
notes: also called clone P1-F6
On to B3, for which the binding result in [24], in assay [25], in [26], in assay [27], in assay [28] and in [29] was “binds” throughout. Moreover, the binding result in the assay with aminoacylase 3 is listed as “binds”.
